This is an account of results in the supplement of paper PMC9112550, “Optimization of the antimicrobial peptide Bac7 by deep mutational scanning” (BMC Biology, 2022).
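Further: peptides expressed intracellularly from a pBAD plasmid library in pooled LB shake-flask culture, induced with 0.3% L-arabinose, DNA abundance read by NGS, three biological replicates, DESeq2 with apeglm shrinkage.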

In this series the test system is Escherichia coli TOP10. Briefly: shrunken log2 fold change of peptide-encoding DNA abundance (4.5 h post-induction vs induction); higher = less antimicrobial activity (less host growth inhibition). Conditions: time post-induction: 4.5 h; library: site-saturation at positions 5, 18, 19, 20.
For the sequence RRIRFRPPRLPRPRPRPHAPPRP, the “shrunken log2 fold change” value is -0.062.

Turning to RRIRQRPPRLPRPRPRPMERPRP, the “shrunken log2 fold change” value stood at 0.301. The figure for RRIRNRPPRLPRPRPRPEQDPRP is 0.0235; for RRIRNRPPRLPRPRPRPYECPRP it is -0.177; for RRIRLRPPRLPRPRPRPDNVPRP it is 0.0219.

Regarding RRIRARPPRLPRPRPRPCRCPRP, the “shrunken log2 fold change” value was 0.0187. Consider RRIRFRPPRLPRPRPRPEDFPRP, for which the “shrunken log2 fold change” value stood at 0.0568. On to RRIRIRPPRLPRPRPRPPGCPRP, for which the “shrunken log2 fold change” value was found to be 0.354.

For the sequence RRIRNRPPRLPRPRPRPLARPRP, the “shrunken log2 fold change” value was determined as 0.107. As for RRIRWRPPRLPRPRPRPHCEPRP, the “shrunken log2 fold change” value was -0.262.

Take RRIRRRPPRLPRPRPRPHVIPRP: the “shrunken log2 fold change” value was -0.0937. The figure for RRIRPRPPRLPRPRPRPTKKPRP is 0.0418; for RRIRVRPPRLPRPRPRPPFGPRP it is 0.298. Turning to RRIRVRPPRLPRPRPRPTYIPRP, the “shrunken log2 fold change” value was -0.51.

Turning to RRIRMRPPRLPRPRPRPGMLPRP, the “shrunken log2 fold change” value is -0.0146. The figure for RRIRFRPPRLPRPRPRPPMRPRP is 1.05; for RRIRQRPPRLPRPRPRPLPEPRP it is 0.39. Turning to RRIRTRPPRLPRPRPRPYMDPRP, the “shrunken log2 fold change” value is -1.37. As for RRIRRRPPRLPRPRPRPWQPPRP, the “shrunken log2 fold change” value is -0.108. For the sequence RRIRCRPPRLPRPRPRPTCGPRP, the “shrunken log2 fold change” value turned out to be 0.111. Under RRIRWRPPRLPRPRPRPHEIPRP stands 0.0984; under RRIRFRPPRLPRPRPRPRWQPRP, 0.229; under RRIRCRPPRLPRPRPRPCCHPRP, -0.204. Under RRIRHRPPRLPRPRPRPHRSPRP stands -0.0796; under RRIRRRPPRLPRPRPRPYHNPRP, -0.819; under RRIRLRPPRLPRPRPRPPHHPRP, 0.253. The figure for RRIRARPPRLPRPRPRPWTNPRP is 0.124.

With RRIRPRPPRLPRPRPRPTIIPRP, the “shrunken log2 fold change” value is -0.65.

For the sequence RRIRDRPPRLPRPRPRPHKEPRP, the “shrunken log2 fold change” value was -0.00521.

As to RRIRIRPPRLPRPRPRPFWVPRP, the “shrunken log2 fold change” value was -0.2. The figure for RRIRGRPPRLPRPRPRPQITPRP is 0.25.

Take RRIRKRPPRLPRPRPRPPHEPRP: the “shrunken log2 fold change” value is 0.491. Under RRIRGRPPRLPRPRPRPGQMPRP stands 0.483.

As to RRIRWRPPRLPRPRPRPARTPRP, the “shrunken log2 fold change” value came to 0.705. Consider RRIRWRPPRLPRPRPRPKKRPRP, for which the “shrunken log2 fold change” value is 0.426.

RRIRIRPPRLPRPRPRPMVMPRP: the “shrunken log2 fold change” value is -0.138. Take RRIRHRPPRLPRPRPRPRTQPRP: the “shrunken log2 fold change” value came out at 0.0696. The figure for RRIRGRPPRLPRPRPRPWYCPRP is -0.408; for RRIRMRPPRLPRPRPRPNRQPRP it is 0.108; for RRIRTRPPRLPRPRPRPPFTPRP it is 0.0073. Under RRIRRRPPRLPRPRPRPEGNPRP stands -0.0565. Under RRIRIRPPRLPRPRPRPEYGPRP stands -0.0842; under RRIRNRPPRLPRPRPRPHAEPRP, 0.00246; under RRIRARPPRLPRPRPRPHMGPRP, 0.0766. With RRIRKRPPRLPRPRPRPAPRPRP, the “shrunken log2 fold change” value turned out to be 1.26. As for RRIRCRPPRLPRPRPRPQTSPRP, the “shrunken log2 fold change” value is -0.209.

In the case of RRIRNRPPRLPRPRPRPLKEPRP, the “shrunken log2 fold change” value stood at 0.00854.

Turning to RRIRPRPPRLPRPRPRPWLGPRP, the “shrunken log2 fold change” value stood at 0.256.

RRIRNRPPRLPRPRPRPWMPPRP: the “shrunken log2 fold change” value is -0.105. Under RRIRKRPPRLPRPRPRPCQRPRP stands -0.00088; under RRIRKRPPRLPRPRPRPNYDPRP, -0.359. For RRIRLRPPRLPRPRPRPSQRPRP, the “shrunken log2 fold change” value is -0.00321. Under RRIRYRPPRLPRPRPRPRMPPRP stands -0.354. Regarding RRIRSRPPRLPRPRPRPHWQPRP, the “shrunken log2 fold change” value was -0.0893.

As for RRIRCRPPRLPRPRPRPPLNPRP, the “shrunken log2 fold change” value came to 0.212. Take RRIRNRPPRLPRPRPRPWHSPRP: the “shrunken log2 fold change” value is -0.496. Under RRIRFRPPRLPRPRPRPCAHPRP stands -0.197; under RRIRERPPRLPRPRPRPGMEPRP, 0.00479; under RRIRTRPPRLPRPRPRPWDSPRP, -0.00804. The figure for RRIRYRPPRLPRPRPRPAQWPRP is -0.294; for RRIRARPPRLPRPRPRPHYWPRP it is -0.658; for RRIRYRPPRLPRPRPRPEVNPRP it is -0.0081. As for RRIRYRPPRLPRPRPRPQTEPRP, the “shrunken log2 fold change” value amounted to 0.0019.

As to RRIRHRPPRLPRPRPRPLRLPRP, the “shrunken log2 fold change” value turned out to be 0.199. Under RRIRARPPRLPRPRPRPGCSPRP stands 0.505. Under RRIRWRPPRLPRPRPRPCQTPRP stands -0.0122; under RRIRNRPPRLPRPRPRPVIAPRP, -0.25. Under RRIRHRPPRLPRPRPRPFWFPRP stands -0.382; under RRIRPRPPRLPRPRPRPHEFPRP, 0.253; under RRIRIRPPRLPRPRPRPRNWPRP, 0.18. With RRIRFRPPRLPRPRPRPNYNPRP, the “shrunken log2 fold change” value is -1.12. Under RRIRCRPPRLPRPRPRPWTHPRP stands -0.325. With RRIRKRPPRLPRPRPRPNSEPRP, the “shrunken log2 fold change” value turned out to be 2.18. For RRIRWRPPRLPRPRPRPGSAPRP, the “shrunken log2 fold change” value was 0.432. The figure for RRIRDRPPRLPRPRPRPLPKPRP is 0.368. The figure for RRIRMRPPRLPRPRPRPQTNPRP is 0.462. For the sequence RRIRPRPPRLPRPRPRPFKNPRP, the “shrunken log2 fold change” value was -0.615. The figure for RRIRCRPPRLPRPRPRPVAVPRP is -0.043; for RRIRSRPPRLPRPRPRPFTFPRP it is -0.189; for RRIRHRPPRLPRPRPRPRRFPRP it is 0.379. Take RRIRARPPRLPRPRPRPLKDPRP: the “shrunken log2 fold change” value stood at 0.0838.

For the sequence RRIRARPPRLPRPRPRPHKTPRP, the “shrunken log2 fold change” value was determined as 0.0429. Consider RRIRTRPPRLPRPRPRPTKPPRP, for which the “shrunken log2 fold change” value is 0.0402. For RRIRSRPPRLPRPRPRPMCQPRP, the “shrunken log2 fold change” value is -0.0136. The figure for RRIRRRPPRLPRPRPRPRECPRP is -0.12; for RRIRFRPPRLPRPRPRPIAVPRP it is -0.116. Under RRIRIRPPRLPRPRPRPREIPRP stands -0.0162; under RRIRNRPPRLPRPRPRPMQNPRP, -0.11. As to RRIRSRPPRLPRPRPRPYVVPRP, the “shrunken log2 fold change” value was -0.314. The figure for RRIRIRPPRLPRPRPRPWLSPRP is -0.238.

In the case of RRIRLRPPRLPRPRPRPPYGPRP, the “shrunken log2 fold change” value is 0.0785. With RRIRSRPPRLPRPRPRPFKAPRP, the “shrunken log2 fold change” value was -0.0415.

As to RRIRDRPPRLPRPRPRPAHNPRP, the “shrunken log2 fold change” value was -0.206. The figure for RRIRVRPPRLPRPRPRPFAGPRP is 0.03; for RRIRERPPRLPRPRPRPGAHPRP it is 0.0368. As to RRIRGRPPRLPRPRPRPATKPRP, the “shrunken log2 fold change” value came to 0.649.

In the case of RRIRVRPPRLPRPRPRPHIRPRP, the “shrunken log2 fold change” value is -0.503. As to RRIRWRPPRLPRPRPRPYMQPRP, the “shrunken log2 fold change” value is -0.422. On to RRIRKRPPRLPRPRPRPYMVPRP, for which the “shrunken log2 fold change” value is -0.211. In the case of RRIRARPPRLPRPRPRPTAEPRP, the “shrunken log2 fold change” value turned out to be 1.3. With RRIRERPPRLPRPRPRPERNPRP, the “shrunken log2 fold change” value is -0.0672. The figure for RRIRDRPPRLPRPRPRPCRAPRP is -0.221; for RRIRLRPPRLPRPRPRPNSDPRP it is -0.2. For the sequence RRIRHRPPRLPRPRPRPQNRPRP, the “shrunken log2 fold change” value is -0.0146.

In the case of RRIRSRPPRLPRPRPRPYHIPRP, the “shrunken log2 fold change” value was -0.845. Consider RRIRTRPPRLPRPRPRPFLVPRP, for which the “shrunken log2 fold change” value was -0.404. For the sequence RRIRTRPPRLPRPRPRPEAKPRP, the “shrunken log2 fold change” value is -0.0276. The figure for RRIRGRPPRLPRPRPRPITGPRP is 0.064. Under RRIRWRPPRLPRPRPRPHICPRP stands 0.00277. With RRIRVRPPRLPRPRPRPDFQPRP, the “shrunken log2 fold change” value was -0.163. On to RRIRGRPPRLPRPRPRPICRPRP, for which the “shrunken log2 fold change” value is -0.0289. The figure for RRIRNRPPRLPRPRPRPHNSPRP is -0.767; for RRIRIRPPRLPRPRPRPGRFPRP it is 0.138. With RRIRSRPPRLPRPRPRPHRAPRP, the “shrunken log2 fold change” value came to 0.0729. On to RRIRNRPPRLPRPRPRPANCPRP, for which the “shrunken log2 fold change” value was -0.185. As to RRIRERPPRLPRPRPRPVSIPRP, the “shrunken log2 fold change” value was -1.57. The figure for RRIRRRPPRLPRPRPRPAGQPRP is 1.41; for RRIRARPPRLPRPRPRPWFSPRP it is -0.00399.

As to RRIRARPPRLPRPRPRPVWVPRP, the “shrunken log2 fold change” value worked out at 0.321. Turning to RRIRNRPPRLPRPRPRPPYSPRP, the “shrunken log2 fold change” value is -0.604.

Take RRIRGRPPRLPRPRPRPVMWPRP: the “shrunken log2 fold change” value was 0.932. Consider RRIRKRPPRLPRPRPRPFLEPRP, for which the “shrunken log2 fold change” value was found to be 0.194. Under RRIRQRPPRLPRPRPRPVCWPRP stands 0.279; under RRIRERPPRLPRPRPRPYLVPRP, -0.529.

As to RRIRTRPPRLPRPRPRPQMCPRP, the “shrunken log2 fold change” value turned out to be 0.0024.
